The subject of the data set is second trimester human fetal neuroglial cultures. Description: Second trimester human fetal neuroglial cultures treated with FK506 and/or BDNF; MAP-2/GFAP immunostaining and propidium iodide cell counts by laser confocal microscopy. Type of data set: cell-based. On the procedure:
Surgical pathology fetal specimens were collected and processed in accordance with the University of Pittsburgh Human Tissue Committee guidelines. Human telencephalic tissues (18-21 weeks of gestation) were collected and placed in DMEM medium (Life Technologies Inc., Grand Island, N.Y.). […] Tissue processing followed a modified mouse brain dissociation protocol. Within 1 hour of collection, the brain material was placed in Ca^++-and Mg^++-free DPBS (Life Technologies), cleaned of meninges, rinsed and minced. Tissue fragments were incubated in 0.05% trypsin-EDTA with additives (Life Technologies) for 5 min at 37° C. and further dissociated. Trypsin inhibitor (10 mg/ml; Sigma, St. Louis, Mo.) was subsequently added, followed by centrifugation for 5 min at 250×g. After filtering through 70 μm nylon-mesh cell strainers (Becton Dickinson, Franklin Lakes, N.J.), the cell suspension was cleaned by gradient centrifugation through an 8% BSA (Sigma) layer (250×g, 10 min). A second filtering was performed using 70 μm and 40 μm nylon-mesh cell strainers (Becton Dickinson). The single cell suspension was counted on a hemocytometer using trypan blue exclusion, brought to a final density of 10^6 cells/ml and plated on poly-l-ornithine (Sigma) and laminin (Life Technologies) coated 12 mm glass coverslips (Fisher, Pittsburgh, PA) on 24-well plates (Becton Dickinson).
Throughout the experiments standard tissue culture techniques were used, in combination with the drug protocol. More specifically, cultures were incubated in 10% CO2 at 37° C. and fed every other day for 1, 5, 12, or 21 days with fresh NPMM (Bio Whittaker, San Diego, Calif.), followed by NPMM with or without various concentrations of FK506 (provided by Dr. A. Zeevi) and/or BDNF (5 ng/ml, Promega, Madison, Wis.).
In an attempt to identify the cell phenotype that is most affected by different treatments, the neuroglial cultures were immunostained for the neuronal marker MAP-2 and the astrocytic marker GFAP. After 7 days of treatment, cultures were washed with PBS and PBS with 0.05% Tween 20 (Sigma), fixed with 4% paraformaldehyde for 30 min and then incubated for 30 min with PBS with 0.2% BSA and 0.1% Triton X (Sigma). Without washing, cultures were incubated overnight at 4° C. with the primary antibodies mouse anti-MAP-2(1:500, Stemberger Monoclonals Inc., Baltimore, Md.) and rabbit anti-GFAP (1:100, Dako, Capinteria, Calif.). After thorough washing with PBS+0.05% Tween 20, a secondary antibody (FITC-conjugated goat anti- mouse and FITC- conjugated goat anti- rabbit) was applied for 2 hours (1:200, Jackson Immuno, West Grove, Pa.). All antibodies were diluted in common antibody diluent (ScyTek, Logan, Utah). RNase A (10 μg/ml; Sigma) was added during the secondary antibody incubation (20 min), followed by the nuclear stain propidium iodide (5 μg/ml, Sigma). Propidium iodide was used to allow quantification of cell numbers for each treatment condition, using LCM and ImageSpace software as described below. Coverslips were then washed and mounted on glass slides (Fisher) using gelvatol fluorescence mounting medium.
A quantitative assessment of the results (i.e., the numbers of cell nuclei stained with propidium iodide and areas covered by immunofluorescent marker staining) using laser confocal microscopy and ImageSpace software (Molecular Dynamics, Sunnyvale, Calif.) was carried out as follows: six randomly chosen fields were analyzed per coverslip (well). The Argon/Krypton laser confocal microscope 40× objective with oil immersion lens (Model 2001, Molecular Dynamics) was used. Images of 512×512 pixels were collected at a pixel size of […]. Vertical sections were acquired in order to define vertical borders for the collection of Z-series. The step size between adjacent sections was […]. FITC was excited with a wavelength of 488 nm and collected with a 530DF30 filter. Propidium iodide was excited with a wavelength of 568 nm and collected with a 590DFLP filter. […]

Consider `C=CC[C@@H]1/C=C(\C)C[C@H](C)C[C@H](OC)[C@H]2O[C@@](O)(C(=O)C(=O)N3CCCC[C@H]3C(=O)O[C@H](/C(C)=C/[C@@H]3CC[C@@H](O)[C@H](OC)C3)[C@H](C)[C@@H](O)CC1=O)[C@H](C)C[C@@H]2OC` [FK506, reference compound], for which, under “higher concentrations of FK506”, the toxic effects entry is “did not appear to exert toxic effects”.

B1: BDNF: brain-derived neurotrophic factor (Promega), neurotrophic protein (protein, UniProt P23560 129-247, looked up)
Neurotrophic factor BDNF: HSDPARRGELSVCDSISEWVTAADKKTAVDMSGGTVTVLEKVPVSKGQLKQYFYETKCNPMGYTKEGCRGIDKRHWNSQCRTTQSYVRALTMDSKKRIGWRFIRIDTSCVCTLTIKRGR
modifications: Neurotrophic factor BDNF
notes: brain-derived neurotrophic factor (Promega), neurotrophic protein
In the case of B1, the “neurite outgrowth / neuronal processes extension” value was “tends to increase”. In addition, for the setting “5 ng/ml, 7 days of treatment”, the “enhancement of neuronal differentiation” value is on record as “not significant”. Further, where the note is “5 ng/ml, 7 days of treatment starting at DIC 12, vs control”, the “MAP-2 surface/cell number ratio” value was “not significantly different from control”. Besides, the “GFAP surface/cell number ratio (GFAP expression)” value (7 days of treatment, vs control) is “decreased”. For the same molecule, the number of neurons entry (BDNF: NeuN immunostaining, unpublished observations) is “modestly increasing”.
